Here are results for four molecules from US20150232562A1 (Ablynx, published 2015).

For assay [1], the target named is T1, Epidermal Growth Factor Receptor 2 (HER2) (human, UniProt P04626 23-1255). Kind of assay: cell-based or functional assay.
In assay [2] the target is T2, recombinant human ErbB2/Fc chimera (human, UniProt P04626 23-652).
T2 construct: bought from R&D Systems; also called rhErbB2-Fc; rhErb2-Fc; Fc part of the bought chimera not given; not described
Kind of assay: SPR (Biacore T100), Nanobody over immobilised rhErbB2-Fc. Background: In SPR one partner is held on a chip, and binding of the other changes the refractive index at the surface.

Assay [3] concerns the target T2, recombinant human ErbB2/Fc chimera. Kind of assay: SPR (Biacore 3000), purified Nanobody over immobilised rhErbB2-Fc.
The target of assay [4] is T3, extracellular domain of HER2 (HER2-ECD), Flag- and polyhistidine-tagged (human, UniProt P04626 23-652).
T3 construct: extracellular domain; made in HEK293T cells, purified by IMAC and SEC; also called ErbB2 ECD; not shown: N-terminal Flag tag after the Ig-kappa leader; C-terminal polyhistidine tag
Kind of assay: SPR, 100 nM HER2-ECD over immobilised Nanobody (about 90 RU).

Assay [5] has as its target T3, extracellular domain of HER2 …. Kind of assay: SPR, 1000 nM HER2-ECD over immobilised Nanobody (about 90 RU).
The target is the same in assay [6]. Put plainly: SPR, 1000 nM HER2-ECD over immobilised Nanobody; row label prints 5F7, table title, text and FIG. 19 say 47D5.
Assay [7] has the same target. Kind of assay: SPR, 100 nM HER2-ECD over immobilised Nanobody; row label prints 5F7, table title, text and FIG. 19 say 47D5.
The target is the same in assay [8]. Put plainly: SPR, HER2-ECD over immobilised Nanobodies.
The target in assay [9] is T1, Epidermal Growth Factor Receptor 2 …. Kind of assay: flow cytometry on SKBR3 cells, periplasmic extract. (In general: In flow cytometry, cells or beads pass a laser one at a time.)
Assay [10] addresses T2, recombinant human ErbB2/Fc chimera. Put plainly: ELISA, coated ErbB2/Fc. (In general: ELISA stands for enzyme-linked immunosorbent assay.)

B1: 2D3 (VHH)
VHH: EVQLVESGGSLVQPGGSLRLSCAASGFTFDDYAMSWVRQVPGKGLEWVSSINWSGTHTDYADSVKGRFTISRNNANNTLYLQMNSLKSEDTAVYYCAKNWRDAGTTWFEKSGSAGQGTQVTVSS
notes: C-term myc-His6 tag; also called NB-2D3; Nb-2D3
Consider B1, for which, in assay [1], the “inhibition of SKBR3 cell proliferation ([3H]-thymidine), 50 nM Nanobody” value was about 30%. Moreover, in [2], the Kd is 1.09 nM. Moreover, the koff in assay [2] is 0.00148 s⁻¹; in assay [3], about 0.001 s⁻¹; in assay [4], 0.0021 s⁻¹; in assay [5] it was 0.00151 s⁻¹. For the same molecule, in assay [2], the kon was 1.36e+06 M⁻¹ s⁻¹.

B2: 47D5 (VHH)
VHH: KVQLVESGGGLVQPGGSLRLSCAASGSIFGFNDMAWYRQAPGKQRELVALISRVGVTSSADSVKGRFTISRVNAKDTVYLQMNSLKPEDTAVYYCYMDQRLDGSTLAYWGQGTQVTVSS
notes: C-term myc-His6 tag; also called 47A8; 47A11
For the molecule B2, in assay [2], the Kd was 2.23 nM, the koff worked out at 0.000862 s⁻¹ and the kon worked out at 386000 M⁻¹ s⁻¹. Also, the off-rate (koff) in assay [6] was 0.00131 s⁻¹. In assay [7], this molecule yielded a koff of 0.00256 s⁻¹.

B3: 2D3-35GS-47D5 (bispecific antibody)
chain: EVQLVESGGSLVQPGGSLRLSCAASGFTFDDYAMSWVRQVPGKGLEWVSSINWSGTHTDYADSVKGRFTISRNNANNTLYLQMNSLKSEDTAVYYCAKNWRDAGTTWFEKSGSAGQGTQVTVSSGGGGSGGGGSGGGGSGGGGSGGGGSGGGGSGGGGSEVQLVESGGGLVQPGGSLRLSCAASGSIFGFNDMAWYRQAPGKQRELVALISRVGVTSSADSVKGRFTISRVNAKDTVYLQMNSLKPEDTAVYYCYMDQRLDGSTLAYWGQGTQVTVSS
notes: biparatopic Nanobody; C-term myc-His6 tag; also called 2D3-47D5
On to B3, for which the koff in assay [4] was determined as 8.07e-05 s⁻¹; in [5], 5.45e-05 s⁻¹. Moreover, the “fold lower koff than on each of the 2D3 and 47D5 surfaces” value in [8] came out at 25 fold.

B4: 2G4 (VHH)
VHH: EVQLVESGGGLVQAGGSLRLSCAASGNIFSHNAMGWYRQAPGKQRELVTYITINGIANYVDSVKGRFTISRDNTKNTMYLQMVSLKPEDTAVYYCNVGGREYSGVYYYREYWGQGTQVTVSS
notes: C-term myc-His6 tag
For the molecule B4, the binding result in [9] and in [10] was “binds” each time.

By Kd is commonly meant a measure of binding affinity in units of concentration. What is called koff is the first-order rate constant of dissociation. The term kon denotes the second-order rate constant of association.
